Values belong to the molecule of their own block, whether it stands above or below them.
Legend:
[1] = molecular target: mouse FAM92A BAR domain Mu3 (R108, K109, R112, R114, K116 to glutamic acid) (mouse); experiment: SEC-MALS; typically 200 μl at 70 μM injected; Superose 12 10/300 GL; 50 mM Tris pH 7.5, 1 mM DTT, 1 mM EDTA, 100 mM NaCl
[2] = molecular target: mouse FAM92A BAR domain Mu5 (R72, K83, K94 to glutamic acid) (mouse); experiment: as above
[3] = molecular target: mouse FAM92A BAR domain (amino acids 70-283), untagged (mouse); experiment: as above
[4] = molecular target: Trx-tagged full-length mouse FAM92A (mouse); experiment: as above
[5] = molecular target: mouse FAM92A BAR domain Mu2 (R201, R203, R205 to glutamic acid) (mouse); experiment: as above
[6] = molecular target: Trx-Strep-tagged mouse FAM92A BAR domain (amino acids 70-283) (mouse); experiment: BLI; Trx-Strep-tagged FAM92A BAR (1 μM) loaded on Strep-Tactin XT probes, His-tagged CBY1 variants in solution; PBS with 0.02% Tween-20 and 0.2% BSA; 1:1 binding model
[7] = molecular target: mouse FAM92A BAR domain (amino acids 70-283), untagged (mouse); experiment: ITC; CBY1 variants (200–300 μM) in the syringe, FAM92A BAR or its dimerization mutants (100–120 μM) in the cell; 25 °C; 50 mM Tris pH 7.5, 1 mM DTT, 1 mM EDTA, 100 mM NaCl; one-site binding model
[8] = molecular target: mouse FAM92A BAR domain Mu1 (K176, K178, R179 to glutamic acid) (mouse); experiment: SEC-MALS; typically 200 μl at 70 μM injected; Superose 12 10/300 GL; 50 mM Tris pH 7.5, 1 mM DTT, 1 mM EDTA, 100 mM NaCl
[9] = molecular target: mouse FAM92A BAR domain Mu4 (K169, K183, K194 to glutamic acid) (mouse); experiment: as above
[10] = molecular target: the molecule itself; experiment: as above
[11] = molecular target: T1, Trx-Strep-tagged mouse FAM92A BAR domain (amino acids 70-283) (mouse); experiment: BLI
T1 chain: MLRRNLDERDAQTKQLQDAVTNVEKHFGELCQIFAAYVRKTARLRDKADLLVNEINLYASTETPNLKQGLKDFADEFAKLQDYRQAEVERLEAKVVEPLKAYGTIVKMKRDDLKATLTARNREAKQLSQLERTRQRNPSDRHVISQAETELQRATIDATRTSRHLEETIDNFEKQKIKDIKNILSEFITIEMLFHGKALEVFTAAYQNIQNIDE

Molecule: Trx-tagged full-length mouse FAM92A (natural protein)
- stoichiometry N [4]: 2

Molecule: MBP-His-tagged mouse CBY1 4E (L77E, L84E, L91E, L98E) (from UniProt Q9D1C2 1-127) (natural protein)
- Kd [6]: 5.6 µM
- Kd [7]: 2.8 µM

Molecule: mouse FAM92A BAR domain Mu1 (K176, K178, R179 to glutamic acid) (domain or fragment)
- stoichiometry N [8]: 2

Molecule: mouse FAM92A BAR domain Mu4 (K169, K183, K194 to glutamic acid) (domain or fragment)
- stoichiometry N [9]: 2

B2: Trx-His-tagged mouse CBY1 N-terminal region (amino acids 1-70) (domain or fragment)
chain: MPLFGSIFSPKKTPPRKSASLSNLHSLDRSTRELELGLDYGTPTMNLAGQSLKFENGQWVADSVISGGVD
- Kd [11]: 10.8 µM
- Kd [6]: 10 µM
- Kd [7]: 3.6 µM

B3: Trx-tagged mouse CBY1 coiled-coil domain (amino acids 61-127) (domain or fragment, UniProt Q9D1C2 61-127, looked up)
chain: ADSVISGGVDRRETQRLRKRNQQLEEENNLLRLKVDILLDMLSETTAESHLKDKELDELKVTNRRRK
notes: mouse CBY1, GenBank NP_082910.1, amino acids 61-127 (C-terminal coiled-coil domain); also called CBY1 CC; source: E. coli BL21 (DE3), purified; not shown: Trx, N-terminal, kept
- stoichiometry N [10]: 2

Continued, in another order:

- stoichiometry N [1]: 2
Molecule: mouse FAM92A BAR domain Mu3 (R108, K109, R112, R114, K116 to glutamic acid) (domain or fragment)

- stoichiometry N [2]: 2
Molecule: mouse FAM92A BAR domain Mu5 (R72, K83, K94 to glutamic acid) (domain or fragment)

- stoichiometry N [3]: 2
Molecule: mouse FAM92A BAR domain (amino acids 70-283), untagged (domain or fragment)

- stoichiometry N [5]: 2
Molecule: mouse FAM92A BAR domain Mu2 (R201, R203, R205 to glutamic acid) (domain or fragment)

- Kd [6]: 0.25 µM
- Kd [7]: 0.15 µM
B1: MBP-His-tagged full-length mouse Chibby1 (CBY1) (natural protein, UniProt Q9D1C2 1-127, looked up)
chain: MPLFGSIFSPKKTPPRKSASLSNLHSLDRSTRELELGLDYGTPTMNLAGQSLKFENGQWVADSVISGGVDRRETQRLRKRNQQLEEENNLLRLKVDILLDMLSETTAESHLKDKELDELKVTNRRRK
notes: mouse CBY1, GenBank NP_082910.1, amino acids 1-127; also called CBY1 FL; CBY1-FL; source: E. coli BL21 (DE3), purified (Ni-NTA, SEC); not shown: MBP, N-terminal, kept; His6, N-terminal, kept
- stoichiometry N [10]: 2

From paper PMC12269497, “Dimerization of the BAR domain–containing protein FAM92A modulates lipid binding and interaction with CBY1” (The Journal of Biological Chemistry, 2025)
